Reference: patent publication US20240060082A1

Target: soybean's RPS5 homolog (soybean)
Assay: cell-based or functional assay

| Substance | resistance to the three soy rust strains in transgenic soybean, compared to control event G40 [% efficacy] |
| --- | --- |
| PBS1-R17 (modified Arabidopsis thaliana PBS1 with cleavage site R17, QVFEFL) (from UniProt Q9FE20 1-456) | > 85 |
| PBS1-R19 (modified Arabidopsis thaliana PBS1 with cleavage site R19, QMIFLR) (from UniProt Q9FE20 1-456) | > 85 |
| PBS1-R20 (modified Arabidopsis thaliana PBS1 with cleavage site R20, IFLWSA) (from UniProt Q9FE20 1-456) | > 85 |
